Measurements reported in patent publication US20240327497A1.
“And” between values parts separate entries of the source, which are not always exact repeats. Equal entries are not always repeated.

What follows are binders tested against canine FcRn (FcRn large subunit with canine beta-2-microglobulin) (canine) (assay: SPR pH 6.0, IgG coupled to CM5, FcRn 50-800 nM).

| Binder | Kd [nM] | koff [s⁻¹] | kon [M⁻¹ s⁻¹] |
| --- | --- | --- | --- |
| canine IgGA antibody with wild-type IgGA Fc and the variable domain of Gearing et al. 2013 (antibody, part only; not given: variable domains and light chain, not shown: another chain or arm of the molecule; small tags and cut ends) Fc: VPEPLGGPSVLIFPPKPKDILRITRTPEVTCVVLDLGREDPEVQISWFVDGKEVHTAKTQSREQQFNGTYRVVSVLPIEHQDWLTGKEFKCRVNHIDLPSPIERTISKARGRAHKPSVYVLPPSPKELSSSDTVSITCLIKDFYPPDIDVEWQSNGQQEPERKHRMTPPQLDEDGSYFLYSKLSVDKSRWQQGDPFTCAVMHETLQNHYTDLSLSHSPGK | 5970 | 0.187 | 31400 |
| canine IgGA antibody, Fc variant A426Y, variable domain of Gearing et al. 2013 (antibody, part only; not given: Variable domains, not shown: another chain or arm of the molecule; small tags and cut ends) Fc: VPEPLGGPSVLIFPPKPKDILRITRTPEVTCVVLDLGREDPEVQISWFVDGKEVHTAKTQSREQQFNGTYRVVSVLPIEHQDWLTGKEFKCRVNHIDLPSPIERTISKARGRAHKPSVYVLPPSPKELSSSDTVSITCLIKDFYPPDIDVEWQSNGQQEPERKHRMTPPQLDEDGSYFLYSKLSVDKSRWQQGDPFTCYVMHETLQNHYTDLSLSHSPGK | 767 | 0.0375 | 48900 |
| canine IgGA antibody, Fc variant A426H, variable domain of Gearing et al. 2013 (antibody, part only; not given: Variable domains, not shown: another chain or arm of the molecule; small tags and cut ends) Fc: VPEPLGGPSVLIFPPKPKDILRITRTPEVTCVVLDLGREDPEVQISWFVDGKEVHTAKTQSREQQFNGTYRVVSVLPIEHQDWLTGKEFKCRVNHIDLPSPIERTISKARGRAHKPSVYVLPPSPKELSSSDTVSITCLIKDFYPPDIDVEWQSNGQQEPERKHRMTPPQLDEDGSYFLYSKLSVDKSRWQQGDPFTCHVMHETLQNHYTDLSLSHSPGK | 1430 | 0.0591 | 41400 |

These binders were tested against canine FcRn (FcRn large subunit with canine beta-2-microglobulin) (canine) (assay: SPR pH 5.5, SASA-Fc captured on BSA, FcRn 400 nM).

| Binder | Kd | WT KD Avg/Variant KD | kon | koff |
| --- | --- | --- | --- | --- |
| canine IgGB Fc (CH2-CH3) M428A with N-terminal SASA tag (Fc fusion, part only; not given: SASA tag, not shown: another chain or arm of the molecule; small tags and cut ends) Fc: APEMLGGPSVFIFPPKPKDTLLIARTPEVTCVVVDLDPEDPEVQISWFVDGKQMQTAKTQPREEQFNGTYRVVSVLPIGHQDWLKGKQFTCKVNNKALPSPIERTISKARGQAHQPSVYVLPPSREELSKNTVSLTCLIKDFFPPDIDVEWQSNGQQEPESKYRTTPPQLDEDGSYFLYSKLSVDKSRWQRGDTFICAVAHEALHNHYTQESLSHSPGK | 723 nM and 1670 nM | 0.78 and 0.34 | 234000 M⁻¹ s⁻¹ and 318000 M⁻¹ s⁻¹ | – |
| canine IgGB Fc (CH2-CH3) P307A with N-terminal SASA tag (Fc fusion, part only; not given: SASA tag, not shown: another chain or arm of the molecule; small tags and cut ends) Fc: APEMLGGPSVFIFPPKPKDTLLIARTPEVTCVVVDLDPEDPEVQISWFVDGKQMQTAKTQPREEQFNGTYRVVSVLAIGHQDWLKGKQFTCKVNNKALPSPIERTISKARGQAHQPSVYVLPPSREELSKNTVSLTCLIKDFFPPDIDVEWQSNGQQEPESKYRTTPPQLDEDGSYFLYSKLSVDKSRWQRGDTFICAVMHEALHNHYTQESLSHSPGK | 325 nM and 338 nM | 1.74 and 1.67 | – | 1.23 s⁻¹ |
| canine IgGB Fc (CH2-CH3) D378A with N-terminal SASA tag (Fc fusion, part only; not given: SASA tag, not shown: another chain or arm of the molecule; small tags and cut ends) Fc: APEMLGGPSVFIFPPKPKDTLLIARTPEVTCVVVDLDPEDPEVQISWFVDGKQMQTAKTQPREEQFNGTYRVVSVLPIGHQDWLKGKQFTCKVNNKALPSPIERTISKARGQAHQPSVYVLPPSREELSKNTVSLTCLIKDFFPPDIAVEWQSNGQQEPESKYRTTPPQLDEDGSYFLYSKLSVDKSRWQRGDTFICAVMHEALHNHYTQESLSHSPGK | 673 nM and 592 nM | 0.84 and 0.96 | 272000 M⁻¹ s⁻¹ and 306000 M⁻¹ s⁻¹ | 0.183 s⁻¹ and 0.181 s⁻¹ |
| canine IgGB Fc (CH2-CH3) I308A with N-terminal SASA tag (Fc fusion, part only; not given: SASA tag, not shown: another chain or arm of the molecule; small tags and cut ends) Fc: APEMLGGPSVFIFPPKPKDTLLIARTPEVTCVVVDLDPEDPEVQISWFVDGKQMQTAKTQPREEQFNGTYRVVSVLPAGHQDWLKGKQFTCKVNNKALPSPIERTISKARGQAHQPSVYVLPPSREELSKNTVSLTCLIKDFFPPDIDVEWQSNGQQEPESKYRTTPPQLDEDGSYFLYSKLSVDKSRWQRGDTFICAVMHEALHNHYTQESLSHSPGK | 472 nM and 563 nM | 1.2 and 1 | 357000 M⁻¹ s⁻¹ and 345000 M⁻¹ s⁻¹ | 0.169 s⁻¹ and 0.194 s⁻¹ |
| canine IgGB Fc (CH2-CH3) G309A with N-terminal SASA tag (Fc fusion, part only; not given: SASA tag, not shown: another chain or arm of the molecule; small tags and cut ends) Fc: APEMLGGPSVFIFPPKPKDTLLIARTPEVTCVVVDLDPEDPEVQISWFVDGKQMQTAKTQPREEQFNGTYRVVSVLPIAHQDWLKGKQFTCKVNNKALPSPIERTISKARGQAHQPSVYVLPPSREELSKNTVSLTCLIKDFFPPDIDVEWQSNGQQEPESKYRTTPPQLDEDGSYFLYSKLSVDKSRWQRGDTFICAVMHEALHNHYTQESLSHSPGK | 245 nM and 294 nM | 2.31 and 1.92 | – | – |
| canine IgGB Fc (CH2-CH3) A254S with N-terminal SASA tag (Fc fusion, part only; not given: SASA tag, not shown: another chain or arm of the molecule; small tags and cut ends) Fc: APEMLGGPSVFIFPPKPKDTLLISRTPEVTCVVVDLDPEDPEVQISWFVDGKQMQTAKTQPREEQFNGTYRVVSVLPIGHQDWLKGKQFTCKVNNKALPSPIERTISKARGQAHQPSVYVLPPSREELSKNTVSLTCLIKDFFPPDIDVEWQSNGQQEPESKYRTTPPQLDEDGSYFLYSKLSVDKSRWQRGDTFICAVMHEALHNHYTQESLSHSPGK | 340 nM and 317 nM | 1.66 and 1.78 | – | – |
| canine IgGB Fc (CH2-CH3) Q285A with N-terminal SASA tag (Fc fusion, part only; not given: SASA tag, not shown: another chain or arm of the molecule; small tags and cut ends) Fc: APEMLGGPSVFIFPPKPKDTLLIARTPEVTCVVVDLDPEDPEVQISWFVDGKQMATAKTQPREEQFNGTYRVVSVLPIGHQDWLKGKQFTCKVNNKALPSPIERTISKARGQAHQPSVYVLPPSREELSKNTVSLTCLIKDFFPPDIDVEWQSNGQQEPESKYRTTPPQLDEDGSYFLYSKLSVDKSRWQRGDTFICAVMHEALHNHYTQESLSHSPGK | 341 nM and 257 nM | 1.66 and 2.2 | – | 0.112 s⁻¹ |
| canine IgGB Fc (CH2-CH3) Y436A with N-terminal SASA tag (Fc fusion, part only; not given: SASA tag, not shown: another chain or arm of the molecule; small tags and cut ends) Fc: APEMLGGPSVFIFPPKPKDTLLIARTPEVTCVVVDLDPEDPEVQISWFVDGKQMQTAKTQPREEQFNGTYRVVSVLPIGHQDWLKGKQFTCKVNNKALPSPIERTISKARGQAHQPSVYVLPPSREELSKNTVSLTCLIKDFFPPDIDVEWQSNGQQEPESKYRTTPPQLDEDGSYFLYSKLSVDKSRWQRGDTFICAVMHEALHNHATQESLSHSPGK | 393 nM and 876 nM | 1.44 and 0.65 | – | 0.407 s⁻¹ and 0.213 s⁻¹ |
| canine IgGB Fc (CH2-CH3) T250A with N-terminal SASA tag (Fc fusion, part only; not given: SASA tag, not shown: another chain or arm of the molecule; small tags and cut ends) Fc: APEMLGGPSVFIFPPKPKDALLIARTPEVTCVVVDLDPEDPEVQISWFVDGKQMQTAKTQPREEQFNGTYRVVSVLPIGHQDWLKGKQFTCKVNNKALPSPIERTISKARGQAHQPSVYVLPPSREELSKNTVSLTCLIKDFFPPDIDVEWQSNGQQEPESKYRTTPPQLDEDGSYFLYSKLSVDKSRWQRGDTFICAVMHEALHNHYTQESLSHSPGK | 335 nM and 328 nM | 1.69 and 1.72 | – | – |
| canine IgGB Fc (CH2-CH3) H433A with N-terminal SASA tag (Fc fusion, part only; not given: SASA tag, not shown: another chain or arm of the molecule; small tags and cut ends) Fc: APEMLGGPSVFIFPPKPKDTLLIARTPEVTCVVVDLDPEDPEVQISWFVDGKQMQTAKTQPREEQFNGTYRVVSVLPIGHQDWLKGKQFTCKVNNKALPSPIERTISKARGQAHQPSVYVLPPSREELSKNTVSLTCLIKDFFPPDIDVEWQSNGQQEPESKYRTTPPQLDEDGSYFLYSKLSVDKSRWQRGDTFICAVMHEALANHYTQESLSHSPGK | 266 nM and 359 nM | 2.13 and 1.58 | – | 0.229 s⁻¹ and 0.0997 s⁻¹ |
| canine IgGB Fc (CH2-CH3) K315A with N-terminal SASA tag (Fc fusion, part only; not given: SASA tag, not shown: another chain or arm of the molecule; small tags and cut ends) Fc: APEMLGGPSVFIFPPKPKDTLLIARTPEVTCVVVDLDPEDPEVQISWFVDGKQMQTAKTQPREEQFNGTYRVVSVLPIGHQDWLAGKQFTCKVNNKALPSPIERTISKARGQAHQPSVYVLPPSREELSKNTVSLTCLIKDFFPPDIDVEWQSNGQQEPESKYRTTPPQLDEDGSYFLYSKLSVDKSRWQRGDTFICAVMHEALHNHYTQESLSHSPGK | 422 nM and 548 nM | 1.34 and 1.03 | – | 0.134 s⁻¹ |
| canine IgGB Fc (CH2-CH3) Q311A with N-terminal SASA tag (Fc fusion, part only; not given: SASA tag, not shown: another chain or arm of the molecule; small tags and cut ends) Fc: APEMLGGPSVFIFPPKPKDTLLIARTPEVTCVVVDLDPEDPEVQISWFVDGKQMQTAKTQPREEQFNGTYRVVSVLPIGHADWLKGKQFTCKVNNKALPSPIERTISKARGQAHQPSVYVLPPSREELSKNTVSLTCLIKDFFPPDIDVEWQSNGQQEPESKYRTTPPQLDEDGSYFLYSKLSVDKSRWQRGDTFICAVMHEALHNHYTQESLSHSPGK | 368 nM and 370 nM | 1.54 and 1.53 | 2.43e+06 M⁻¹ s⁻¹ and 1.34e+06 M⁻¹ s⁻¹ | 0.894 s⁻¹ and 0.496 s⁻¹ |
| canine IgGB Fc (CH2-CH3) L252A with N-terminal SASA tag (Fc fusion, part only; not given: SASA tag, not shown: another chain or arm of the molecule; small tags and cut ends) Fc: APEMLGGPSVFIFPPKPKDTLAIARTPEVTCVVVDLDPEDPEVQISWFVDGKQMQTAKTQPREEQFNGTYRVVSVLPIGHQDWLKGKQFTCKVNNKALPSPIERTISKARGQAHQPSVYVLPPSREELSKNTVSLTCLIKDFFPPDIDVEWQSNGQQEPESKYRTTPPQLDEDGSYFLYSKLSVDKSRWQRGDTFICAVMHEALHNHYTQESLSHSPGK | 292 nM and 240 nM | 1.94 and 2.36 | – | – |
| canine IgGB Fc (CH2-CH3) T256A with N-terminal SASA tag (Fc fusion, part only; not given: SASA tag, not shown: another chain or arm of the molecule; small tags and cut ends) Fc: APEMLGGPSVFIFPPKPKDTLLIARAPEVTCVVVDLDPEDPEVQISWFVDGKQMQTAKTQPREEQFNGTYRVVSVLPIGHQDWLKGKQFTCKVNNKALPSPIERTISKARGQAHQPSVYVLPPSREELSKNTVSLTCLIKDFFPPDIDVEWQSNGQQEPESKYRTTPPQLDEDGSYFLYSKLSVDKSRWQRGDTFICAVMHEALHNHYTQESLSHSPGK | 447 nM and 298 nM | 1.27 and 1.9 | – | 0.166 s⁻¹ |
| canine IgGB Fc (CH2-CH3) T286A with N-terminal SASA tag (Fc fusion, part only; not given: SASA tag, not shown: another chain or arm of the molecule; small tags and cut ends) Fc: APEMLGGPSVFIFPPKPKDTLLIARTPEVTCVVVDLDPEDPEVQISWFVDGKQMQAAKTQPREEQFNGTYRVVSVLPIGHQDWLKGKQFTCKVNNKALPSPIERTISKARGQAHQPSVYVLPPSREELSKNTVSLTCLIKDFFPPDIDVEWQSNGQQEPESKYRTTPPQLDEDGSYFLYSKLSVDKSRWQRGDTFICAVMHEALHNHYTQESLSHSPGK | 464 nM and 569 nM | 1.22 and 0.99 | 422000 M⁻¹ s⁻¹ and 533000 M⁻¹ s⁻¹ | 0.196 s⁻¹ and 0.304 s⁻¹ |
